Test results from the Immune Epitope Database (IEDB).

What was measured:
HLA-A*02:01 = assay: IEDB peptide-MHC binding, purified MHC/competitive/radioactivity; filed as Kd, often an IC50 or EC50 that approximates it; ≥ and ≤ were set here for values at or beyond the usual limits of such assays; details: source organism: Dengue virus 1 Singapore/S275/1990
HLA-A*02:17 = assay: as above; details: source organism: Dengue virus 1 Singapore/S275/1990
HLA-B*51:01 = assay: as above
HLA-B*35:01 = assay: as above
HLA-B*53:01 = assay: as above
HLA-B*54:01 = assay: as above
HLA-B*08:01 = assay: as above; details: source organism: Hepacivirus hominis
HLA-B*40:02 = assay: as above
HLA-B*44:03 = assay: as above
HLA-B*18:01 = assay: as above
HLA-B*45:01 = assay: as above
HLA-B*44:02 = assay: as above
HLA-B*40:01 = assay: as above
HLA-A*11:01 [1] = assay: IEDB peptide-MHC binding, purified MHC/competitive/fluorescence; ≥ and ≤ were set here for values at or beyond the usual limits of such assays
HLA-A*02:06 = assay: IEDB peptide-MHC binding, purified MHC/competitive/radioactivity; filed as Kd, often an IC50 or EC50 that approximates it; ≥ and ≤ were set here for values at or beyond the usual limits of such assays
HLA-A*02:03 = assay: as above
HLA-B*07:02 = assay: as above
HLA-A*02:02 = assay: as above; details: source organism: Vaccinia virus WR
HLA-A*68:01 = assay: as above; details: source organism: Vaccinia virus WR
HLA-A*03:01 = assay: as above; details: source organism: Vaccinia virus WR
HLA-A*11:01 [2] = assay: as above; details: source organism: Vaccinia virus WR
HLA-A*33:01 = assay: as above; details: source organism: Vaccinia virus WR
HLA-A*31:01 = assay: as above; details: source organism: Vaccinia virus WR
HLA-A*68:02 = assay: as above; details: source organism: Vaccinia virus WR
[3] = source organism: Hepacivirus hominis
[4] = source organism: Mammarenavirus juninense
[5] = source organism: SARS coronavirus Tor2
[6] = source organism: Dengue virus 1 Brazil/97-11/1997
[7] = source organism: Vaccinia virus WR
[8] = source organism: Mammarenavirus lassaense

QLWATLLSL
Kd (HLA-A*02:01): 1.16 nM
Kd (HLA-A*02:17): 50.6 nM

RPALVFDIT
Kd (HLA-B*51:01; [3]): ≥ 30700 nM
Kd (HLA-B*35:01; [3]): 2080 nM
Kd (HLA-B*53:01; [3]): ≥ 50200 nM
Kd (HLA-B*54:01; [3]): 95.4 nM
Kd (HLA-B*08:01): 2910 nM

SDFLISEML
Kd (HLA-B*40:02; [4]): 17.1 nM
Kd (HLA-B*44:03; [4]): ≥ 51500 nM
Kd (HLA-B*18:01; [4]): ≥ 56000 nM
Kd (HLA-B*45:01; [4]): ≥ 27600 nM
Kd (HLA-B*44:02; [4]): 2400 nM
Kd (HLA-B*40:01; [4]): 11500 nM

SELVIGAVI
Kd (HLA-B*40:02; [5]): 55.9 nM
Kd (HLA-B*44:03; [5]): 426 nM
Kd (HLA-B*18:01; [5]): 2590 nM
Kd (HLA-B*45:01; [5]): 155 nM
Kd (HLA-B*44:02; [5]): 605 nM
Kd (HLA-B*40:01; [5]): 88.9 nM

SQNSTEGRR
IC50 (HLA-A*11:01 [1]; source organism: Sudan ebolavirus): 22400 nM

SVLLWMASV
Kd (HLA-A*02:01): 6.33 nM
Kd (HLA-A*02:17): 20.9 nM
Kd (HLA-A*02:06; source organism: Dengue virus 1 Singapore/S275/1990): 15.7 nM

TEGLCVDIPG
Kd (HLA-B*40:02; [5]): 91.8 nM
Kd (HLA-B*44:03; [5]): ≥ 34900 nM
Kd (HLA-B*18:01; [5]): ≥ 70500 nM
Kd (HLA-B*45:01; [5]): 74.8 nM
Kd (HLA-B*44:02; [5]): ≥ 43300 nM
Kd (HLA-B*40:01; [5]): ≥ 69600 nM

TFSILNRKA
IC50 (HLA-A*11:01 [1]; source organism: Zaire ebolavirus): 66500 nM

TLMLLALIAV
Kd (HLA-A*02:01): 7.52 nM
Kd (HLA-A*02:17): 9100 nM
Kd (HLA-A*02:03; [6]): 29.1 nM
Kd (HLA-A*02:06; [6]): 52.7 nM

TPLVQPVGAL
Kd (HLA-B*07:02; [5]): 86.9 nM
Kd (HLA-B*51:01; [5]): 2340 nM
Kd (HLA-B*35:01; [5]): 5270 nM
Kd (HLA-B*53:01; [5]): 1720 nM
Kd (HLA-B*54:01; [5]): 494 nM

TPVSMTYLY
Kd (HLA-B*07:02; [7]): 170 nM
Kd (HLA-B*51:01; [7]): ≥ 77500 nM
Kd (HLA-B*35:01; [7]): 0.0662 nM
Kd (HLA-B*54:01; [7]): 972 nM

VETFYPKLQA
Kd (HLA-B*40:02; [5]): 12600 nM
Kd (HLA-B*44:03; [5]): ≥ 41400 nM
Kd (HLA-B*18:01; [5]): ≥ 59600 nM
Kd (HLA-B*45:01; [5]): 2600 nM
Kd (HLA-B*44:02; [5]): ≥ 70200 nM
Kd (HLA-B*40:01; [5]): ≥ 69600 nM

VILFIMFMLI
Kd (HLA-A*02:02): 722 nM
Kd (HLA-A*02:03; [7]): 769 nM
Kd (HLA-B*07:02; [7]): 5480 nM
Kd (HLA-A*68:01): 113 nM
Kd (HLA-A*03:01): 81 nM
Kd (HLA-B*51:01; [7]): 7570 nM
Kd (HLA-A*11:01 [2]): 353 nM
Kd (HLA-A*02:06; [7]): 1410 nM
Kd (HLA-A*33:01): 514 nM
Kd (HLA-B*53:01; [7]): 1700 nM
Kd (HLA-B*54:01; [7]): 804 nM
Kd (HLA-A*31:01): 128 nM
Kd (HLA-A*68:02): 1080 nM

VPSVNEYHML
Kd (HLA-B*07:02; [7]): 1210 nM
Kd (HLA-B*51:01; [7]): ≥ 52200 nM
Kd (HLA-B*35:01; [7]): 4410 nM
Kd (HLA-B*53:01; [7]): 2170 nM
Kd (HLA-B*54:01; [7]): ≥ 69900 nM

VTLNASQYA
IC50 (HLA-A*11:01 [1]; source organism: Vaccinia virus Copenhagen): ≥ 227000 nM

WEPEFYEAMY
Kd (HLA-B*40:02; [5]): 7180 nM
Kd (HLA-B*44:03; [5]): 377 nM
Kd (HLA-B*18:01; [5]): 1650 nM
Kd (HLA-B*45:01; [5]): ≥ 52400 nM
Kd (HLA-B*44:02; [5]): 2220 nM
Kd (HLA-B*40:01; [5]): 5410 nM

WMTTEDMLSV
Kd (HLA-A*02:01): 18.8 nM
Kd (HLA-A*02:17): 593 nM
Kd (HLA-A*02:03; [6]): 8.93 nM
Kd (HLA-A*02:06; [6]): 10.6 nM

YIIRVTTEL
Kd (HLA-A*02:02): 0.856 nM
Kd (HLA-A*02:03; [7]): 17.6 nM
Kd (HLA-B*07:02; [7]): 521 nM
Kd (HLA-A*68:01): ≥ 64600 nM
Kd (HLA-A*03:01): ≥ 78000 nM
Kd (HLA-B*51:01; [7]): 14600 nM
Kd (HLA-A*11:01 [2]): ≥ 77900 nM
Kd (HLA-A*02:06; [7]): 18.1 nM
Kd (HLA-A*33:01): ≥ 77700 nM
Kd (HLA-B*35:01; [7]): 14600 nM
Kd (HLA-B*53:01; [7]): ≥ 36700 nM
Kd (HLA-B*54:01; [7]): ≥ 78100 nM
Kd (HLA-A*31:01): ≥ 77900 nM
Kd (HLA-A*68:02): 147 nM

YPSMFEKHI
Kd (HLA-B*07:02; [8]): 16300 nM
Kd (HLA-B*51:01; [8]): 525 nM
Kd (HLA-B*35:01; [8]): 898 nM
Kd (HLA-B*53:01; [8]): 228 nM
Kd (HLA-B*54:01; [8]): ≥ 20500 nM
